Results reported in patent publication EP4293046A1 (Shanghai Jemincare Pharmaceuticals Co., Ltd., dated 2023).

Columns and labels:
[1] = biological target: T1, human PD-1 (Sino Biological, Catalog Number: 10377-H08H) (human, UniProt Q15116 25-167); assay: BLI, Octet RED96e, antibody on AHC sensor, PD-1 100 nM
T1 construct: Bought protein

[2] = biological target: biotin-labeled human PD-1 (Acro, Catalog Number: PD1-H82E4) (human) (UniProt Q15116); assay: flow cytometry, yeast-displayed Fab, titration of soluble PD-1
Sequence of biotin-labeled human PD-1 (Acro, Catalog Number: PD1-H82E4) (human) (Q15116 25-167 limits assumed): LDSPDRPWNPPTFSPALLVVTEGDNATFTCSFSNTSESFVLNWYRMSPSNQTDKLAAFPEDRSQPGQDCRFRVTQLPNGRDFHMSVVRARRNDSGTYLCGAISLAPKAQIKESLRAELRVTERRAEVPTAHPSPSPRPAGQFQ

[3] = biological target: biotin-labeled monkey PD-1 (Acro, Catalog Number: PD1-C82E6) (monkey (cyno)) (UniProt B0LAJ3); assay: as above
Sequence of biotin-labeled monkey PD-1 (Acro, Catalog Number: PD1-C82E6) (monkey (cyno)) (B0LAJ3 entry or part of it limits assumed): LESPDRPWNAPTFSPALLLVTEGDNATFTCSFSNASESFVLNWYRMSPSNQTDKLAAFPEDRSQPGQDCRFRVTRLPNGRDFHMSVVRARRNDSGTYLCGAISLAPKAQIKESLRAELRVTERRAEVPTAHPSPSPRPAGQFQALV

[4] = biological target: T1, human PD-1 (Sino Biological, Catalog …); assay: BLI, Octet RED96e
[5] = biological target: T2, human PD-1 (Acro, Catalog Number: PD-1-H5221) (human, UniProt Q15116 25-167); assay: BLI, Octet RED96e, antibody on AHC sensor, PD-1 100 nM
T2 construct: Bought protein
T2 sequence (Q15116 25-167 limits assumed): as the sequence (Q15116 25-167 limits assumed) above

[6] = biological target: T3, monkey PD-1 (Acro, Catalog Number: PD-1-C5223) (monkey, UniProt B0LAJ3 25-170); assay: as above
T3 construct: Bought protein; not shown: any purification tag of the vendor's construct (Acro PD-1-C5223)
T3 sequence (B0LAJ3 entry or part of it limits assumed, form in doubt): as the sequence (B0LAJ3 entry or part of it limits assumed) above

[7] = biological target: T3, monkey PD-1 (Acro, Catalog Number: …); assay: BLI, Octet RED96e
[8] = biological target: T2, human PD-1 (Acro, Catalog Number: …); assay: BLI, Octet RED96e

T1 sequence (Q15116 25-167 limits assumed): as the sequence (Q15116 25-167 limits assumed) above

B1: 1910h3hzL3H4 (antibody, V domains shown)
VH: QVQLVQSGAEVKKPGASVKVSCKASGFTFIDYEMHWVRQAPGQGLEWIGGIHPGSGGTAYNQKFKGRATLTADISISTAYMELSRLRSDDTAVYYCTREGFDVGWYFDVWGQGTTVTVSS
VL: DVVMTQSPLSLPVTLGQPASISCRSSQSIVHSDGDTFLEWYQQRPGQSPRLLIYKVSNRFSGVPDRFSGSGSGTDFTLKISRVEAEDVGVYYCFQGSHVPYTFGQGTKLEIK
notes: Humanized antibody; the description mentions human IgG4 S228P and kappa; also called humanized antibody of 46H3A8; 1910h3hzL3 light chain + 1910h3hzH4 heavy chain
B1 gave a Kd [1] of 8.04 nM, a koff [1] of 0.00118 s⁻¹ and a kon [1] of 147000 M⁻¹ s⁻¹.

B2: 41D2HzL4H3 parent sequence displayed on the yeast surface in the form of Fab (Fab, V domains shown)
VH: EVQLVESGGGLVKPGGSLRLSCAASGFTFSNYDMSWVRQAPGKGLEWVSTISGGGSYTYYADSVKGRFTISRDNAKNSLYLQMNSLRAEDTAVYYCVSPYYGMEYWGQGTLVTVSS
VL: DIQLTQSPSFLSASVGDRVTITCKASQDVGTAVAWYQQKPGKAPKLLIYWASTRHTGVPSRFSGSGSGTEFTLTISSLQPEDFATYFCQQYSSYPWTFGGGTKVEIK
B2 gave an Ag50 [2] of 5.08 nM and an Ag50 [3] of 36.1 nM.

B3: 41D2HzL4H3 (antibody, V domains shown)
VH: EVQLVESGGGLVKPGGSLRLSCAASGFTFSNYDMSWVRQAPGKGLEWVSTISGGGSYTYYADSVKGRFTISRDNAKNSLYLQMNSLRAEDTAVYYCVSPYYGMEYWGQGTLVTVSS
VL: DIQLTQSPSFLSASVGDRVTITCKASQDVGTAVAWYQQKPGKAPKLLIYWASTRHTGVPSRFSGSGSGTEFTLTISSLQPEDFATYFCQQYSSYPWTFGGGTKVEIK
notes: Humanized antibody; the description mentions human IgG4 S228P and kappa; also called parent antibody; humanized antibody of 41D2-2C3D7
B3 was tested, and the “fold higher affinity than Pembrolizumab” value [4] was 4.2 times, the Kd [5] was 1.27 nM and the koff [5] was 0.000589 s⁻¹. It also gave a kon [5] of 464000 M⁻¹ s⁻¹, a Kd [6] of 5.2 nM and a koff [6] of 0.00153 s⁻¹. The kon [6] was 295000 M⁻¹ s⁻¹, the Kd [1] was 1.92 nM and the koff [1] was 0.000542 s⁻¹. It also gave a kon [1] of 283000 M⁻¹ s⁻¹.

B4: Ab2005Am08 (antibody, V domains shown)
VH: EVQLVESGGGLVKPGGSLRLSCAASGFTFSNYDMSWVRQAPGKGLEWVSTISGGGRYTYYADSVKGRFTISRDNAKNSLYLQMNSLRAEDTAVYYCVSPYYGMEYWGQGTLVTVSS
VL: DIQLTQSPSFLSASVGDRVTITCKASQDVGTAVAWYQQKPGKAPKLLIYWASTRHTGVPSRFSGSGSGTEFTLTISSLQPEDFATYFCQQYSSYPWTFGGGTKVEIK
notes: also called clone YC215H3 as IgG
For B4, the “fold affinity against the parent antibody” value [7] was roughly 2 times, the “fold affinity against the parent antibody” value [8] was roughly 2 times and the Kd [5] was 0.504 nM. It also gave a koff [5] of 0.00023 s⁻¹, a kon [5] of 457000 M⁻¹ s⁻¹ and a Kd [6] of 1.52 nM. The koff [6] was 0.000486 s⁻¹, the kon [6] was 320000 M⁻¹ s⁻¹ and the Ag50 [2] was 1.26 nM. The Ag50 [3] was 2.42 nM.
